# Reference: patent publication US20250321223A1 (KEMIJSKI INSTITUT, published 2025)
# T1: nLuc:cERβ
# T1 construct: Expressed in HEK293T cells from pcDNA3; also called Myc:gsg:nLuc:gs10:cERβ; cSplit of ERβ CISPA sensor
# T1 chain: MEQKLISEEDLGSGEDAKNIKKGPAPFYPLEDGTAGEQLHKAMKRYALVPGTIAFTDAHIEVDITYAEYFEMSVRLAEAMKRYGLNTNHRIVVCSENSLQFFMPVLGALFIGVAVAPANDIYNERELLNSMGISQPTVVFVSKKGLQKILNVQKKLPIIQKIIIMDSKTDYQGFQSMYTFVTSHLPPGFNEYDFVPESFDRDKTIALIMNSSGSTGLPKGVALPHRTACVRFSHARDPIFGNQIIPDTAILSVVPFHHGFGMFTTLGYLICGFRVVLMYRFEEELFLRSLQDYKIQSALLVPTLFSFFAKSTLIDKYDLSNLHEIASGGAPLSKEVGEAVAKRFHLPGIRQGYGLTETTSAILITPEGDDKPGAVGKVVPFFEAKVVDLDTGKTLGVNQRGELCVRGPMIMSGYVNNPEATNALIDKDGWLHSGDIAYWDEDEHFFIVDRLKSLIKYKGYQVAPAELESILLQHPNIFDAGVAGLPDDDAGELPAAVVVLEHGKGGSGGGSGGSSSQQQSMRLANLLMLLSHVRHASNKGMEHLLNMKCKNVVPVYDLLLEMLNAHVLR
# T2: nLuc:cPPARγ
# T2 construct: Expressed in HEK293T cells from pcDNA3; also called Myc:gsg:nLuc:gs10:cPPARγ; cSplit of PPARγ CISPA sensor
# T2 chain: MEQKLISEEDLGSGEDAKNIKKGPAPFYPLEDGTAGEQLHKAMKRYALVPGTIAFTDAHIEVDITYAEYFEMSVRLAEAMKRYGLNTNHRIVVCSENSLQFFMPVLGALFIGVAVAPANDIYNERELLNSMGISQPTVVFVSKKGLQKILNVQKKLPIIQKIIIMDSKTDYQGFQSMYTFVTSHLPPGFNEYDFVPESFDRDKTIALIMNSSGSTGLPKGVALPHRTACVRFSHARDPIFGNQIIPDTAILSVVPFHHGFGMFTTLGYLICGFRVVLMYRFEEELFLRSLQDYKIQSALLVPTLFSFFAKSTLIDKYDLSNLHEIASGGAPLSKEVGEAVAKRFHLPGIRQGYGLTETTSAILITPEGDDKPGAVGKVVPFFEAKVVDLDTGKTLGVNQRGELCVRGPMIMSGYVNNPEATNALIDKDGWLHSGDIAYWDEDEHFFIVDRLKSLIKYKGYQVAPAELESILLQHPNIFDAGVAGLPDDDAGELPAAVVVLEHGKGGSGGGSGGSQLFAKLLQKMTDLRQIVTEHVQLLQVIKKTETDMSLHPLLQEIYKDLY
# T3: nLuc:cGR2
# T3 construct: Expressed in HEK293T cells from pcDNA3; also called Myc:gsg:nLuc:gs10:cGR2; cSplit of GR2 CISPA sensor
# T3 chain: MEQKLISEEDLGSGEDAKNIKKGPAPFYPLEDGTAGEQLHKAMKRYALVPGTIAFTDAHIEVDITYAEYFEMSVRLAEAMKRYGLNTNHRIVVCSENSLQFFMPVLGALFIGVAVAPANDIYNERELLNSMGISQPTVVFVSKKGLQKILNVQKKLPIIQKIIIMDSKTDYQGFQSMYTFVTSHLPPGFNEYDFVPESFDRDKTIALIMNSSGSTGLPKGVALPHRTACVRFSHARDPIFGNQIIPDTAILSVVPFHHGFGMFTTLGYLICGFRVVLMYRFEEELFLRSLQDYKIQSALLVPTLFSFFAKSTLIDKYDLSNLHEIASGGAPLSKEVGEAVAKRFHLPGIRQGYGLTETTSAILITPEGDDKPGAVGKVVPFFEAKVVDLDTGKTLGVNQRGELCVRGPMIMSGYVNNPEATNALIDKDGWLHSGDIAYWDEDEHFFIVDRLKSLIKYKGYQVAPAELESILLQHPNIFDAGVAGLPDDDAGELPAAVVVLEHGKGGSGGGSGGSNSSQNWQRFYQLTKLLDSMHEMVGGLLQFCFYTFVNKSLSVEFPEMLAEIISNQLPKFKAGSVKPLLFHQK
# T4: nLuc:cTRβ
# T4 construct: also called Myc:gsg:nLuc:gs10:cTRβ; cSplit of TRβ CISPA sensor
# T4 chain: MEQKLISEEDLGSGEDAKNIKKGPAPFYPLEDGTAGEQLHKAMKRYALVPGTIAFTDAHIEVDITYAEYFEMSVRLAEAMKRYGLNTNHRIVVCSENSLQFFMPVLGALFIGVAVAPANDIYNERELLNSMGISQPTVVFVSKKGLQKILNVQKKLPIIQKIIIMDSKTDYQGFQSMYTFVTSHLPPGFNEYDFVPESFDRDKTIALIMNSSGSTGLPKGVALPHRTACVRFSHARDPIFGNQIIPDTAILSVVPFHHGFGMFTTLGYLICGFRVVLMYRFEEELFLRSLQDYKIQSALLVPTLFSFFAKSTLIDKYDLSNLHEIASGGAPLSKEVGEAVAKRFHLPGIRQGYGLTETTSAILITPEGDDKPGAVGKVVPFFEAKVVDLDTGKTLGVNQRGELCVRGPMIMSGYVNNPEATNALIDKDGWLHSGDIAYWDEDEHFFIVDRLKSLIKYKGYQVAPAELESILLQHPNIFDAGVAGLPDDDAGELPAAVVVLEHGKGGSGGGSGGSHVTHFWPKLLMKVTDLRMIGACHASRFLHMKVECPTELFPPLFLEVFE
# B1: nERβ:cLuc (other)
# chain: MDALSPEQLVLTLLEAEPPHVLISRPSAPFTEASMMMSLTKLADKELVHMISWAKKIPGFVELSLFDQVRLLESCWMEVLMMGLMWRSIDHPGKLIFAPDLVLDRDEGKCVEGILEIFDMLLATTSRFRELKLQHKEYLCVKAMILLNSSMYPLVTATQDADSSRKLAHLLNAVTDALVWVIAKSGIGGSGGGSGGSTMTEKEIVDYVASQVTTAKKLRGGVVFVDEVPKGLTGKLDARKIREILIKAKKGGKIAVNSGSGYPYDVPDYA
# notes: Expressed in HEK293T cells from pcDNA3; also called nERβ:gs10:cLuc:gsg:HA; nSplit of ERβ CISPA sensor
# B2: nLyn:cLuc (other)
# chain: MAWEIPRESIKLVKRLGAGQFGEVWMGYYNGGSGGGSGGSTMTEKEIVDYVASQVTTAKKLRGGVVFVDEVPKGLTGKLDARKIREILIKAKKGGKIAVNSGSGYPYDVPDYA
# notes: Expressed in HEK293T cells from pcDNA3; also called nLyn:gs10:cLuc:gsg:HA; nSplit of Lyn CISPA sensor
# B3: nPPARγ:cLuc (other)
# chain: MGSHMLNPESADLRALAKHLYDSYIKSFPLTKAKARAILTGKTTDKSPFVIYDMNSLMMGEDKIKFKHITPLQEQSKEVAIRIFQGCQFRSVEAVQEITEYAKSIPGFVNLDLNDQVTLLKYGVHEIIYTMLASLMNKDGVLISEGQGFMTREFLKSLRKPFGDFMEPKFEFAVKFNALELDDSDLAIFIAVIILSGDRPGLLNVKPIEDIQDNLLQALELQLKLNHPESSGGSGGGSGGSTMTEKEIVDYVASQVTTAKKLRGGVVFVDEVPKGLTGKLDARKIREILIKAKKGGKIAVNSGSGYPYDVPDYA
# notes: Expressed in HEK293T cells from pcDNA3; also called nPPARγ:gs10:cLuc:gsg:HA; nSplit of PPARγ CISPA sensor
# B4: nDHFR:cLuc (other)
# chain: MVGSLNCIVAVSQNMGIGKNGDLPWPPLRNEFRYFQRMTTTSSVEGKQNLVIMGKKTWFSIPEKNRPLKGRINLVLSRELKEPPQGAHFLSRSLDDALKLTEQPELANKVDMVWIVGGSSVYKEAMNHPGHLKLFVTRIMQDFESDTFFPEIDLEKYKLLPEYPGVLSDVQEEKGGSGGGSGGSTMTEKEIVDYVASQVTTAKKLRGGVVFVDEVPKGLTGKLDARKIREILIKAKKGGKIAVNSGSGYPYDVPDYA
# notes: Expressed in HEK293T cells from pcDNA3; also called nDHFR:gs10:cLuc:gsg:HA; nSplit of DHFR CISPA sensor
# B5: nGR2:cLuc (other)
# chain: MLISLLEVIEPEVLYSGYDSTLPDTSTRLMSTLNRLGGRQVVSAVKWAKALPGFRNLHLDDQMTLLQYSWMSLMAFSLGWRSYKQSNGNMLCFAPDLVINEERMQLPYMYDQCQQMLKISSEFVRLQVSYDEYLCMKVLLLLSTVPKDGLKSQAVFDEIRMTYIKELGKAIVKREGGGSGGGSGGSTMTEKEIVDYVASQVTTAKKLRGGVVFVDEVPKGLTGKLDARKIREILIKAKKGGKIAVNSGSGYPYDVPDYA
# notes: Expressed in HEK293T cells from pcDNA3; also called nGR2:gs10:cLuc:gsg:HA; nSplit of GR2 CISPA sensor
# B6: nTRβ:cLuc (other)
# chain: MHMEELQKSIGHKPEPTDEEWELIKTVTEAHVATNAQGSHWKQKRKFLPEDIGQAPIVNAPEGGKVDLEAFSHFTKIITPAITRVVDFAKKLPMFCELPCEDQIILLKGCCMEIMSLRAAVRYDPESETLTLNGEMAVTRGQLKNGGLGVVSDAIFDLGMSLSSFNLDDTEVALLQAVLLMSSDRPGLACVERIEKYQDSFLLAFEHYINYRKHGGSGGGSGGSTMTEKEIVDYVASQVTTAKKLRGGVVFVDEVPKGLTGKLDARKIREILIKAKKGGKIAVNSGSGYPYDVPDYA
# notes: also called nTRβ:gs10:cLuc:gsg:HA; nSplit of TRβ CISPA sensor
# What was measured:
# nLuc:cERβ = target: T1, nLuc:cERβ; experiment: split firefly luciferase complementation in HEK293T cells, ligand dose response (FIG. 2C)
# Experimental: (§1) 50 ng of each plasmid encoding CISPA sensor pair was transiently co-transfected in HEK293T cells which were 24 h post-transfection stimulated with the indicated ligands. […] Replicates represent HEK293T cell cultures, individually transfected with the same mixture of plasmids. The values represent the mean and standard deviation of replicates within two to three independent experiments (n=4). Data was plotted as a standard dose response curve.
# (§2) The fusion constructs were simultaneously expressed in the HEK293T cell line. […] Following this dimerization, the split reporter fragments (nLuc and cLuc) are brought into the proximity, leading to their reconstitution and measurable output signal (emitted light). The plasmids encoding for the CISPA sensors based on split LBDs were transiently transfected into the HEK293T cell line. […]
# (§3) Two days after transfection, the cells were harvested and lysed with 25 μl of 1× passive lysis buffer (Promega). Firefly luciferase and Renilla luciferase expression were measured using a dual luciferase assay (Promega) and an Orion II microplate reader (Berthold Technologies). […] Relative luciferase activity (RLU) was calculated by normalizing each sample's firefly luciferase activity to the constitutive Renilla luciferase activity determined within the same sample.
# nLuc:cLyn = target: T5, nLuc:cLyn; experiment: split firefly luciferase complementation in HEK293T cells, dasatinib dose response (FIG. 3A)
# T5 construct: Expressed in HEK293T cells from pcDNA3; also called Myc:gsg:nLuc:gs10:cLyn; cSplit of Lyn CISPA sensor
# Experimental: (§4) Cell cultures of HEK293T cells were grown at 37° C. and 5% CO₂. For cultivation, DMEM medium with 10% FBS, containing all the necessary nutrients and growth factors was used. When the cell population reached a sufficient density, the cells were transferred to a new flask and/or diluted. For use in experiments, the number of cells was determined by the Countess automated cell counter (Invitrogen). A 96-well microtiter plate, suitable for growing cell cultures, was inoculated with 2*10⁴ cells per well 24 hours prior to transfection. Inoculated plates were incubated at 37° C. and 5% CO₂. […] Twelve hours after transfection, the cells were stimulated by removing the media and replacing it with media containing selected ligands. Cells were stimulated for 24 hours.
# as §3
# The plasmids encoding for designed CISPA sensor were transiently co-transfected into HEK293T cell line. […]
# nLuc:cPPARγ = target: T2, nLuc:cPPARγ; experiment: split firefly luciferase complementation in HEK293T cells, ligand dose response (FIG. 2E)
# Experimental: as §1, §2, §3
# nLuc:cDHFR = target: T6, nLuc:cDHFR (human, UniProt P08659 2-491 = luciferase); experiment: split firefly luciferase complementation in HEK293T cells, methotrexate or pralatrexate dose response (FIG. 3B)
# T6 construct: Expressed in HEK293T cells from pcDNA3; also called Myc:gsg:nLuc:gs10:cDHFR; cSplit of DHFR CISPA sensor
# Experimental: as §4, §3
# The plasmids encoding for CISPA sensor was transiently co-transfected into HEK293T cell line. […]
# nLuc:cGR2 = target: T3, nLuc:cGR2; experiment: split firefly luciferase complementation in HEK293T cells; dimerization only with cognate ligand
# Experimental: as §1, §2, §3
# nLuc:cTRβ = target: T4, nLuc:cTRβ; experiment: split firefly luciferase complementation in HEK293T cells, ligand dose response (FIG. 2D)
binder,measurement,setting,value
B1,binding result,nLuc:cERβ,binds
B2,binding result,nLuc:cLyn,binds
B3,binding result,nLuc:cPPARγ,binds
B4,binding result,nLuc:cDHFR,binds
B5,binding result,nLuc:cGR2,binds
B6,binding result,nLuc:cTRβ,binds
